According to patent publication US20190367578A1 (Novo Nordisk, published 2019):
*1 amine or outer side, *2 acyl side, *3 side chain or, on linkers, in order; H or OH if unused. Where no end group is shown, it is not given here. Side-chain parts run from the residue outwards. [ ]: non-standard residue; d: D form. The star is where a group is joined. C20 diacid = O=C(O)CCCCCCCCCCCCCCCCCCC(=O)*; C18 diacid = O=C(O)CCCCCCCCCCCCCCCCC(=O)*; γGlu = O=C(O)[C@H](CCC(=O)[*:2])N[*:1]; Nle = CCCC[C@H](N)C(=O)O; AEEA = NCCOCCOCC(=O)O; Aib = CC(C)(N)C(=O)O

T1: human GIP receptor (human) (UniProt P48546)
T1 sequence (looked up): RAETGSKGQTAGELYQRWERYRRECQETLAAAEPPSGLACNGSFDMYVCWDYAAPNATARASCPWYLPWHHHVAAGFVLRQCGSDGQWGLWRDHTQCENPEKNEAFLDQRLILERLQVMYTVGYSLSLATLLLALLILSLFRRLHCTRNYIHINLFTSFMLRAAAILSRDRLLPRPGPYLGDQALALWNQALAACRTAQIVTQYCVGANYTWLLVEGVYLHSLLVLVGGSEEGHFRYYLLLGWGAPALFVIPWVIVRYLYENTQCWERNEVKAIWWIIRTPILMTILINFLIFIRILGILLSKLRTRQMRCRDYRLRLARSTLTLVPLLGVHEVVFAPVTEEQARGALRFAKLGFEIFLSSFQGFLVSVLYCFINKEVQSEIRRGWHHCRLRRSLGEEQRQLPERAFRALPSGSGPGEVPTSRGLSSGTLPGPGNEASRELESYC


Columns and labels:
Assay in all cases: cell-based or functional assay
[1] = target: T1, human GIP receptor (human)
[2] = target: human glucagon receptor (human) (UniProt P47871)
Chain of human glucagon receptor (human) (P47871 26-477): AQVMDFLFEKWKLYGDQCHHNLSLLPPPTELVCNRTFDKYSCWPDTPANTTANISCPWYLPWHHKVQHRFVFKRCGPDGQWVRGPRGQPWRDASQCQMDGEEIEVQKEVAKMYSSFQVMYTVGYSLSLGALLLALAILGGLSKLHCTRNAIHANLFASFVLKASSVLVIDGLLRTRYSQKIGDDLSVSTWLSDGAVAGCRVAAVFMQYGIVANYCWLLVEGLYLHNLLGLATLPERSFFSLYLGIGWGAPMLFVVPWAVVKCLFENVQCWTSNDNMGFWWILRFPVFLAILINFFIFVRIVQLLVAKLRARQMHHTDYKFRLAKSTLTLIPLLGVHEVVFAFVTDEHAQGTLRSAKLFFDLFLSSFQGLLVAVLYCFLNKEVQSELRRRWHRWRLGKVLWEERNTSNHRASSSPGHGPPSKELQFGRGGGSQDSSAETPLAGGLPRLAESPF

[3] = target: human GLP-1 receptor (human) (UniProt P43220)
Chain of human GLP-1 receptor (human) (P43220 24-463): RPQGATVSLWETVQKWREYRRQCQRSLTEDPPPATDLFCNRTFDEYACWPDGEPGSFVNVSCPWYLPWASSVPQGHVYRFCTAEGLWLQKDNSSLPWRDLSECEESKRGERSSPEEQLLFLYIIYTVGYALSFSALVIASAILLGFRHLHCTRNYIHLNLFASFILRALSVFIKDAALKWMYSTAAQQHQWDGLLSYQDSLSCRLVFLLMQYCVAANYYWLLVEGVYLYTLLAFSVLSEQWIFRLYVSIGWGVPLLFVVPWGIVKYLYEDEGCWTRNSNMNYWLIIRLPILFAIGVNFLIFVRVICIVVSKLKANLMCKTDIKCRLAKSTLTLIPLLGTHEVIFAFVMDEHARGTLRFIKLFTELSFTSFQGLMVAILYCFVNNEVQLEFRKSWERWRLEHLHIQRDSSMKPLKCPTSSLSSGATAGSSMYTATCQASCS

| EC50 (pM), hGIP-R CRE Luc, 0.2% HSA [1] [pM] | Molecule | also measured |
| --- | --- | --- |
| 61.5 | N{Epsilon-24}-[(4S)-4-carboxy-4-[[(4S)-4-carboxy-4-[[(4S)-4-carboxy-4-[[4-[(19-carboxynonadecanoylamino)methyl]cyclohexanecarbonyl]amino]butanoyl]amino]butanoyl]amino]butanoyl]-[Aib2,Nle14,Arg18,Lys24,Pro31]-hGIP(1-31) amide (peptide) | – |
| 20.9 | N{1}-acetyl, N{Epsilon-24}-[(4S)-4-carboxy-4-[[(4S)-4-carboxy-4-[[(4S)-4-carboxy-4-(17-carboxyheptadecanoylamino)butanoyl]amino]butanoyl]amino]butanoyl]-[D-Tyr1,Aib2,Nle14,Arg18,Lys24]-hGIP(1-31) (peptide) | – |
| 76.2 | Ac-[dY]AEGTFISDYSIA[Nle]DKIRQQDFVK([γGlu-γGlu-γGlu-4‑(aminomethyl)cyclohexanecarbonyl-C20 diacid])WLLAQKP-NH2 | – |
| 14 | Y[Aib]EGTFISDYSIA[Nle]DKIRQQDFVK([AEEA-AEEA-γGlu-4‑(aminomethyl)cyclohexanecarbonyl-C20 diacid])WLLAQKGKEEDWKHNITQ | – |
| 158 | Y[Aib]EGTFISDYSIA[Nle]DKIHQEDFVK([γGlu-γGlu-γGlu-γGlu-C18 diacid])WLLAQKG | – |
| 180 | Ac-[dY]AEGTFISDYSIA[Nle]DKIRQQDFVK([γGlu-γGlu-γGlu-4‑(aminomethyl)cyclohexanecarbonyl-C20 diacid])WLLAQKG | – |

Continued, molecule first:

| Molecule | EC50 (pM), hGIP-R CRE Luc, 0.2% HSA [1] [pM] | also measured |
| --- | --- | --- |
| N{1}-acetyl,N{Epsilon-24}-[(4S)-4-carboxy-4-[[(4S)-4-carboxy-4-[[(4S)-4-carboxy-4-[[(4S)-4-carboxy-4-[[4-[(19-carboxynonadecanoylamino)methyl]cyclohexanecarbonyl]amino]butanoyl]amino]butanoyl]amino]butanoyl]amino]butanoyl]-[D-Tyr1,Aib2,Nle14,Arg18,Lys24,Pro31]-hGIP(1-31) amide (peptide) | 26.1 | EC50 (pM), hGcg-R CRE Luc, 1% HSA (footnote *) [2]: > 100000 pM |
| N{1}-acetyl,N{Epsilon-24}-[(4S)-4-carboxy-4-[[(4S)-4-carboxy-4-[[(4S)-4-carboxy-4-[[4-[(19-carboxynonadecanoylamino)methyl]cyclohexanecarbonyl]amino]butanoyl]amino]butanoyl]amino]butanoyl]-[D-Tyr1,Aib2,Nle14,Arg18,Lys24]-hGIP(1-31) (peptide) | 135 | – |
| N{Epsilon-24}-[(4S)-4-carboxy-4-[[(4S)-4-carboxy-4-[[(4S)-4-carboxy-4-[[4-[(19-carboxynonadecanoylamino)methyl]cyclohexanecarbonyl]amino]butanoyl]amino]butanoyl]amino]butanoyl]-[Aib2,Nle14,Arg18,Lys24]-hGIP(1-31) (peptide) | 72.1 | – |
| N{Epsilon-24}-[2-[2-[2-[[2-[2-[2-[[(4S)-4-carboxy-4-[[4-[(19-carboxynonadecanoylamino)methyl]cyclohexanecarbonyl]amino]butanoyl]amino]ethoxy]ethoxy]acetyl]amino]ethoxy]ethoxy]acetyl]-[Aib2,Nle14,Arg18,Lys24]-hGIP(1-31) (peptide) | 44.7 | – |
| N{1}-acetyl,N{Epsilon-24}-[(4S)-4-carboxy-4-[[(4S)-4-carboxy-4-[[(4S)-4-carboxy-4-(17-carboxyheptadecanoylamino)butanoyl]amino]butanoyl]amino]butanoyl]-[D-Tyr1,Aib2,Nle14,Arg18,Lys24,Pro31]-hGIP(1-31) amide (peptide) | 21.2 | EC50 (pM), hGLP-1-R CRE Luc, 0.2% HSA [3]: > 100000 pM |
| Y[Aib]EGTFISDYSIA[Nle]DKIHQQDFVK([γGlu-γGlu-γGlu-C18 diacid])WLLAQKG | 49.9 | EC50 (pM), hGLP-1-R CRE Luc, 1% HSA (footnote *) [3]: > 100000 pM; EC50 (pM), hGcg-R CRE Luc, 1% HSA (footnote *) [2]: > 100000 pM |
| Ac-[dY]AEGTFISDYSIADDKIRQEDFVK([AEEA-AEEA-γGlu-C18 diacid])WLLAQKG | 91.5 | – |
| Y[Aib]EGTFISDYSIA[Nle]DAIRQQDFVK([γGlu-γGlu-γGlu-4‑(aminomethyl)cyclohexanecarbonyl-C20 diacid])WLLAQKG | 266 | – |
| Ac-[dY][Aib]EGTFISDYSIA[Nle]DKIHQQDFVK([γGlu-γGlu-γGlu-4‑(aminomethyl)cyclohexanecarbonyl-C20 diacid])WLLAQKP-NH2 | 38.4 | – |
| Y[Aib]EGTFISDYSIA[Nle]DKIHQQDFVK([γGlu-γGlu-γGlu-C18 diacid])WLLAQKGKENDWKHNITQ | 21.3 | EC50 (pM), hGLP-1-R CRE Luc, 1% HSA (footnote *) [3]: > 100000 pM; EC50 (pM), hGcg-R CRE Luc, 1% HSA (footnote *) [2]: > 100000 pM |
